Measured values taken from publication PMC9472616.

Assays:
[1] = molecular target: American mink ACE2 fused to mouse Fc (AmkACE2-mFc) (American mink (Neovison vison)); assay: SPR
[2] = molecular target: European mink ACE2 fused to mouse Fc (EmkACE2-mFc) (European mink); assay: SPR

In the case of “SARS-CoV-2 WT RBD (from UniProt P0DTC2 319-541) (domain or fragment)”, the Kd [1] is reported as 8.92 µM and the Kd [2] is reported as 52.8 µM.
